Laboratory results taken from patent US20230357348A1 (AstraZeneca / MedImmune, published 2023).
Values belong to the binder of their own block, whether it stands above or below them. Starred links: 1 amine or outer side, 2 acyl side, 3 side chain; linkers in the order of their positions; H or OH if unused. Non-standard residues stand in square brackets, D forms with d. Groups on a side chain read outwards from the residue. No end group written: not given here. *: point of attachment. C18 diacid = O=C(O)CCCCCCCCCCCCCCCCC(=O)*; γGlu = O=C(O)[C@H](CCC(=O)[*:2])N[*:1]; αMeF = C[C@](N)(Cc1ccccc1)C(=O)O; AEEA = NCCOCCOCC(=O)O; Aib = CC(C)(N)C(=O)O

Tests used:
Experiment in all cases: cell-based or functional assay
[1] = biological target: human GLP-1 receptor (hGLP-1R) (human, UniProt P43220 24-463)
[2] = biological target: human glucagon receptor (hGCGR) (human, UniProt P47871 26-477)
human glucagon receptor (hGCGR), sequence (P47871 26-477): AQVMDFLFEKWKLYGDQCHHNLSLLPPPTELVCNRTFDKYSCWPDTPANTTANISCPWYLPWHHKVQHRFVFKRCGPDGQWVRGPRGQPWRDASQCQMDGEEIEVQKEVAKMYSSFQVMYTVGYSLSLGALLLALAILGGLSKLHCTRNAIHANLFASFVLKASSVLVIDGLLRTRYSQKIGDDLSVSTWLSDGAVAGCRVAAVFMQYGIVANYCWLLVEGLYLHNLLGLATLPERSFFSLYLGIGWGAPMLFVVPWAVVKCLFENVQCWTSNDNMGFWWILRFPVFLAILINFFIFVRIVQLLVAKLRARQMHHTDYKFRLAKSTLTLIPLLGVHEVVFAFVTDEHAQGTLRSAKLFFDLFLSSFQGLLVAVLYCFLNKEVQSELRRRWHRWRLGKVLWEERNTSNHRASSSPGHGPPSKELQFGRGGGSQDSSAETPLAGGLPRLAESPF

human GLP-1 receptor = human GLP-1 receptor (human, UniProt P43220 24-463)
human glucagon receptor = human glucagon receptor (human, UniProt P47871 26-477)
human glucagon receptor, sequence (P47871 26-477): as above

hGLP-1R EC50 (pM); cAMP production [1]: 74.9 pM
Binder: HXHGSXTSDVSKXLDSQAAQDFVXWIANT (Aib at 2; αMePhe at 6 and 13; K(O2Oc-O2Oc-γE-C18diacid)24; C-terminal amide) [Peptide 358]

hGLP-1R EC50 (pM); cAMP production [1]: 71.8 pM | hGluc-R EC50 (pM); cAMP production [2]: 85.7 pM
Binder: H[Aib]HGS[αMeF]TSDVSK[αMeF]LDSRAAQD[αMeF]VK([AEEA-AEEA-γGlu-C18 diacid])SIANT-NH2 (not fully specified) [Peptide 379]

hGluc-R EC50 (pM); cAMP production [2]: 42.8 pM
B1: Peptide 362 (peptide)
peptide: H[Aib]HGS[αMeF]TSDVSK[αMeF]LDSRAAQDFVK([AEEA-AEEA-γGlu-γGlu-C18 diacid])WIANT-NH2
modifications: N-terminus assumed
SMILES: CC[C@H](C)[C@H](NC(=O)[C@H](Cc1c[nH]c2ccccc12)NC(=O)[C@H](CCCCNC(=O)COCCOCCNC(=O)COCCOCCNC(=O)CC[C@H](NC(=O)CC[C@H](NC(=O)CCCCCCCCCCCCCCCCC(=O)O)C(=O)O)C(=O)O)NC(=O)[C@@H](NC(=O)[C@H](Cc1ccccc1)NC(=O)[C@H](CC(=O)O)NC(=O)[C@H](CCC(N)=O)NC(=O)[C@H](C)NC(=O)[C@H](C)NC(=O)[C@H](CCCNC(=N)N)NC(=O)[C@H](CO)NC(=O)[C@H](CC(=O)O)NC(=O)[C@H](CC(C)C)NC(=O)[C@](C)(Cc1ccccc1)NC(=O)[C@H](CCCCN)NC(=O)[C@H](CO)NC(=O)[C@@H](NC(=O)[C@H](CC(=O)O)NC(=O)[C@H](CO)NC(=O)[C@@H](NC(=O)[C@](C)(Cc1ccccc1)NC(=O)[C@H](CO)NC(=O)CNC(=O)[C@H](Cc1c[nH]cn1)NC(=O)C(C)(C)NC(=O)[C@@H](N)Cc1c[nH]cn1)[C@@H](C)O)C(C)C)C(C)C)C(=O)N[C@@H](C)C(=O)N[C@@H](CC(N)=O)C(=O)N[C@H](C(N)=O)[C@@H](C)O

hGLP-1R EC50 (pM); cAMP production [1]: 7320 pM
Binder: HXHGTFTSDVSKXLDSQAAQDFVXWIANT (Aib at 2; αMePhe at 13; K(γE-C18diacid)24; C-terminal amide) [Peptide 346]

hGLP-1R EC50 (pM), cAMP (human GLP-1 receptor): 194 pM | hGluc-R EC50 (pM), cAMP (human glucagon receptor): 690 pM
B2: Peptide 526 (peptide)
peptide: H[Aib]QGTFTSDVSK[αMeF]LDSERAK([AEEA-AEEA-γGlu-C18 diacid])DFVAWLEA[Aib]G-OH
modifications: N-terminus assumed
SMILES: CC(C)C[C@H](NC(=O)[C@H](Cc1c[nH]c2ccccc12)NC(=O)[C@H](C)NC(=O)[C@@H](NC(=O)[C@H](Cc1ccccc1)NC(=O)[C@H](CC(=O)O)NC(=O)[C@H](CCCCNC(=O)COCCOCCNC(=O)COCCOCCNC(=O)CC[C@H](NC(=O)CCCCCCCCCCCCCCCCC(=O)O)C(=O)O)NC(=O)[C@H](C)NC(=O)[C@H](CCCNC(=N)N)NC(=O)[C@H](CCC(=O)O)NC(=O)[C@H](CO)NC(=O)[C@H](CC(=O)O)NC(=O)[C@H](CC(C)C)NC(=O)[C@](C)(Cc1ccccc1)NC(=O)[C@H](CCCCN)NC(=O)[C@H](CO)NC(=O)[C@@H](NC(=O)[C@H](CC(=O)O)NC(=O)[C@H](CO)NC(=O)[C@@H](NC(=O)[C@H](Cc1ccccc1)NC(=O)[C@@H](NC(=O)CNC(=O)[C@H](CCC(N)=O)NC(=O)C(C)(C)NC(=O)[C@@H](N)Cc1c[nH]cn1)[C@@H](C)O)[C@@H](C)O)C(C)C)C(C)C)C(=O)N[C@@H](CCC(=O)O)C(=O)N[C@@H](C)C(=O)NC(C)(C)C(=O)NCC(=O)O
